{"source": "the supplement of paper PMC9112550", "about": "“Optimization of the antimicrobial peptide Bac7 by deep mutational scanning” (BMC Biology, 2022);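 also: peptides expressed intracellularly from a pBAD plasmid library in pooled LB shake-flask culture, induced with 0.3% L-arabinose, DNA abundance read by NGS, three biological replicates, DESeq2 with apeglm shrinkage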", "data": [{"test_system": "Escherichia coli TOP10", "experiment": "shrunken log2 fold change of peptide-encoding DNA abundance (4.5 h post-induction vs induction); higher = less antimicrobial activity (less host growth inhibition)", "conditions": "time post-induction: 4.5 h; library: site-saturation at positions 5, 18, 19, 20", "values": [{"sequence": "RRIRIRPPRLPRPRPRPTEEPRP", "shrunken log2 fold change": 0.146}, {"sequence": "RRIRIRPPRLPRPRPRPTERPRP", "shrunken log2 fold change": -0.0197}, {"sequence": "RRIRIRPPRLPRPRPRPTFIPRP", "shrunken log2 fold change": -0.677}, {"sequence": "RRIRIRPPRLPRPRPRPTFVPRP", "shrunken log2 fold change": -0.582}, {"sequence": "RRIRIRPPRLPRPRPRPTGCPRP", "shrunken log2 fold change": -0.0215}, {"sequence": "RRIRIRPPRLPRPRPRPTGWPRP", "shrunken log2 fold change": 0.19}, {"sequence": "RRIRIRPPRLPRPRPRPTHFPRP", "shrunken log2 fold change": -0.0417}, {"sequence": "RRIRIRPPRLPRPRPRPTHKPRP", "shrunken log2 fold change": 0.201}, {"sequence": "RRIRIRPPRLPRPRPRPTHVPRP", "shrunken log2 fold change": -0.0979}, {"sequence": "RRIRIRPPRLPRPRPRPTHYPRP", "shrunken log2 fold change": -0.392}, {"sequence": "RRIRIRPPRLPRPRPRPTIVPRP", "shrunken log2 fold change": 0.119}, {"sequence": "RRIRIRPPRLPRPRPRPTKTPRP", "shrunken log2 fold change": 0.12}, {"sequence": "RRIRIRPPRLPRPRPRPTMEPRP", "shrunken log2 fold change": -0.523}, {"sequence": "RRIRIRPPRLPRPRPRPTNHPRP", "shrunken log2 fold change": -0.587}, {"sequence": "RRIRIRPPRLPRPRPRPTNIPRP", "shrunken log2 fold change": -0.237}, {"sequence": "RRIRIRPPRLPRPRPRPTQHPRP", "shrunken log2 fold change": 0.0549}, {"sequence": "RRIRIRPPRLPRPRPRPTQRPRP", "shrunken log2 fold change": 0.187}, {"sequence": "RRIRIRPPRLPRPRPRPTSSPRP", "shrunken log2 fold change": -0.25}, {"sequence": "RRIRIRPPRLPRPRPRPTTAPRP", "shrunken log2 fold change": -0.00422}, {"sequence": "RRIRIRPPRLPRPRPRPTTCPRP", "shrunken log2 fold change": -0.447}, {"sequence": "RRIRIRPPRLPRPRPRPTVAPRP", "shrunken log2 fold change": 0.334}, {"sequence": "RRIRIRPPRLPRPRPRPTVCPRP", "shrunken log2 fold change": 0.312}, {"sequence": "RRIRIRPPRLPRPRPRPTVTPRP", "shrunken log2 fold change": -0.303}, {"sequence": "RRIRIRPPRLPRPRPRPTYGPRP", "shrunken log2 fold change": -0.548}, {"sequence": "RRIRIRPPRLPRPRPRPVDDPRP", "shrunken log2 fold change": -0.0762}, {"sequence": "RRIRIRPPRLPRPRPRPVDEPRP", "shrunken log2 fold change": -0.0203}, {"sequence": "RRIRIRPPRLPRPRPRPVDFPRP", "shrunken log2 fold change": -0.133}, {"sequence": "RRIRIRPPRLPRPRPRPVDHPRP", "shrunken log2 fold change": -0.498}, {"sequence": "RRIRIRPPRLPRPRPRPVGFPRP", "shrunken log2 fold change": -0.182}, {"sequence": "RRIRIRPPRLPRPRPRPVGHPRP", "shrunken log2 fold change": -0.0495}, {"sequence": "RRIRIRPPRLPRPRPRPVHPPRP", "shrunken log2 fold change": -0.0793}, {"sequence": "RRIRIRPPRLPRPRPRPVHWPRP", "shrunken log2 fold change": 0.0203}, {"sequence": "RRIRIRPPRLPRPRPRPVKKPRP", "shrunken log2 fold change": -0.0235}, {"sequence": "RRIRIRPPRLPRPRPRPVLCPRP", "shrunken log2 fold change": -0.0142}, {"sequence": "RRIRIRPPRLPRPRPRPVLTPRP", "shrunken log2 fold change": -0.0413}, {"sequence": "RRIRIRPPRLPRPRPRPVMPPRP", "shrunken log2 fold change": -0.142}, {"sequence": "RRIRIRPPRLPRPRPRPVNQPRP", "shrunken log2 fold change": 0.0745}, {"sequence": "RRIRIRPPRLPRPRPRPVRTPRP", "shrunken log2 fold change": -0.0633}, {"sequence": "RRIRIRPPRLPRPRPRPVSAPRP", "shrunken log2 fold change": 0.0887}, {"sequence": "RRIRIRPPRLPRPRPRPVSDPRP", "shrunken log2 fold change": -0.619}, {"sequence": "RRIRIRPPRLPRPRPRPVSEPRP", "shrunken log2 fold change": -0.164}, {"sequence": "RRIRIRPPRLPRPRPRPVTAPRP", "shrunken log2 fold change": -0.299}, {"sequence": "RRIRIRPPRLPRPRPRPVTLPRP", "shrunken log2 fold change": -0.093}, {"sequence": "RRIRIRPPRLPRPRPRPVTTPRP", "shrunken log2 fold change": -0.0229}, {"sequence": "RRIRIRPPRLPRPRPRPVTWPRP", "shrunken log2 fold change": -0.372}, {"sequence": "RRIRIRPPRLPRPRPRPVVAPRP", "shrunken log2 fold change": -0.0606}, {"sequence": "RRIRIRPPRLPRPRPRPVVGPRP", "shrunken log2 fold change": 0.0233}, {"sequence": "RRIRIRPPRLPRPRPRPVVIPRP", "shrunken log2 fold change": -0.307}, {"sequence": "RRIRIRPPRLPRPRPRPVWCPRP", "shrunken log2 fold change": 0.148}, {"sequence": "RRIRIRPPRLPRPRPRPVWTPRP", "shrunken log2 fold change": -0.273}, {"sequence": "RRIRIRPPRLPRPRPRPWALPRP", "shrunken log2 fold change": -0.0173}, {"sequence": "RRIRIRPPRLPRPRPRPWATPRP", "shrunken log2 fold change": 0.16}, {"sequence": "RRIRIRPPRLPRPRPRPWCLPRP", "shrunken log2 fold change": -1.11}, {"sequence": "RRIRIRPPRLPRPRPRPWCYPRP", "shrunken log2 fold change": -0.406}, {"sequence": "RRIRIRPPRLPRPRPRPWDNPRP", "shrunken log2 fold change": -0.339}, {"sequence": "RRIRIRPPRLPRPRPRPWEVPRP", "shrunken log2 fold change": -0.00884}, {"sequence": "RRIRIRPPRLPRPRPRPWFDPRP", "shrunken log2 fold change": -0.184}, {"sequence": "RRIRIRPPRLPRPRPRPWGSPRP", "shrunken log2 fold change": -0.488}, {"sequence": "RRIRIRPPRLPRPRPRPWHPPRP", "shrunken log2 fold change": -0.383}, {"sequence": "RRIRIRPPRLPRPRPRPWHQPRP", "shrunken log2 fold change": -0.00186}, {"sequence": "RRIRIRPPRLPRPRPRPWIIPRP", "shrunken log2 fold change": -0.207}, {"sequence": "RRIRIRPPRLPRPRPRPWMQPRP", "shrunken log2 fold change": -0.182}, {"sequence": "RRIRIRPPRLPRPRPRPWNDPRP", "shrunken log2 fold change": -0.216}, {"sequence": "RRIRIRPPRLPRPRPRPWNVPRP", "shrunken log2 fold change": -0.00149}, {"sequence": "RRIRIRPPRLPRPRPRPWPKPRP", "shrunken log2 fold change": -0.122}, {"sequence": "RRIRIRPPRLPRPRPRPWPNPRP", "shrunken log2 fold change": -0.0754}, {"sequence": "RRIRIRPPRLPRPRPRPWQKPRP", "shrunken log2 fold change": 0.0223}, {"sequence": "RRIRIRPPRLPRPRPRPWSWPRP", "shrunken log2 fold change": -0.0152}, {"sequence": "RRIRIRPPRLPRPRPRPWTAPRP", "shrunken log2 fold change": -0.307}, {"sequence": "RRIRIRPPRLPRPRPRPWTFPRP", "shrunken log2 fold change": 0.0921}, {"sequence": "RRIRIRPPRLPRPRPRPWYEPRP", "shrunken log2 fold change": -0.0153}, {"sequence": "RRIRIRPPRLPRPRPRPWYFPRP", "shrunken log2 fold change": -0.19}, {"sequence": "RRIRIRPPRLPRPRPRPWYIPRP", "shrunken log2 fold change": -0.0639}, {"sequence": "RRIRIRPPRLPRPRPRPYDGPRP", "shrunken log2 fold change": -0.0104}, {"sequence": "RRIRIRPPRLPRPRPRPYDNPRP", "shrunken log2 fold change": 0.0332}, {"sequence": "RRIRIRPPRLPRPRPRPYDWPRP", "shrunken log2 fold change": -0.593}, {"sequence": "RRIRIRPPRLPRPRPRPYFLPRP", "shrunken log2 fold change": -0.921}, {"sequence": "RRIRIRPPRLPRPRPRPYFQPRP", "shrunken log2 fold change": -0.511}, {"sequence": "RRIRIRPPRLPRPRPRPYGAPRP", "shrunken log2 fold change": -0.199}, {"sequence": "RRIRIRPPRLPRPRPRPYIEPRP", "shrunken log2 fold change": -0.266}, {"sequence": "RRIRIRPPRLPRPRPRPYITPRP", "shrunken log2 fold change": -1.34}, {"sequence": "RRIRIRPPRLPRPRPRPYKMPRP", "shrunken log2 fold change": -0.889}, {"sequence": "RRIRIRPPRLPRPRPRPYLHPRP", "shrunken log2 fold change": -1.61}, {"sequence": "RRIRIRPPRLPRPRPRPYNDPRP", "shrunken log2 fold change": -0.313}, {"sequence": "RRIRIRPPRLPRPRPRPYQFPRP", "shrunken log2 fold change": -0.141}, {"sequence": "RRIRIRPPRLPRPRPRPYRAPRP", "shrunken log2 fold change": -0.77}, {"sequence": "RRIRIRPPRLPRPRPRPYRMPRP", "shrunken log2 fold change": -1.26}, {"sequence": "RRIRIRPPRLPRPRPRPYSIPRP", "shrunken log2 fold change": -0.129}, {"sequence": "RRIRIRPPRLPRPRPRPYTEPRP", "shrunken log2 fold change": -0.512}, {"sequence": "RRIRIRPPRLPRPRPRPYVRPRP", "shrunken log2 fold change": -0.199}, {"sequence": "RRIRIRPPRLPRPRPRPYWEPRP", "shrunken log2 fold change": -0.152}, {"sequence": "RRIRIRPPRLPRPRPRPYWHPRP", "shrunken log2 fold change": -0.718}, {"sequence": "RRIRIRPPRLPRPRPRPYYEPRP", "shrunken log2 fold change": -1.06}, {"sequence": "RRIRKRPPRLPRPRPRPAAQPRP", "shrunken log2 fold change": 0.814}, {"sequence": "RRIRKRPPRLPRPRPRPACSPRP", "shrunken log2 fold change": 0.341}, {"sequence": "RRIRKRPPRLPRPRPRPADDPRP", "shrunken log2 fold change": 0.799}, {"sequence": "RRIRKRPPRLPRPRPRPAEMPRP", "shrunken log2 fold change": -0.00753}, {"sequence": "RRIRKRPPRLPRPRPRPAESPRP", "shrunken log2 fold change": 0.563}, {"sequence": "RRIRKRPPRLPRPRPRPAFRPRP", "shrunken log2 fold change": 0.576}, {"sequence": "RRIRKRPPRLPRPRPRPAITPRP", "shrunken log2 fold change": 0.613}, {"sequence": "RRIRKRPPRLPRPRPRPAIVPRP", "shrunken log2 fold change": 0.0885}, {"sequence": "RRIRKRPPRLPRPRPRPAKPPRP", "shrunken log2 fold change": 0.464}, {"sequence": "RRIRKRPPRLPRPRPRPAKTPRP", "shrunken log2 fold change": 0.0104}, {"sequence": "RRIRKRPPRLPRPRPRPALPPRP", "shrunken log2 fold change": 0.936}, {"sequence": "RRIRKRPPRLPRPRPRPANNPRP", "shrunken log2 fold change": 0.0823}, {"sequence": "RRIRKRPPRLPRPRPRPAQDPRP", "shrunken log2 fold change": 0.679}, {"sequence": "RRIRKRPPRLPRPRPRPAQEPRP", "shrunken log2 fold change": 0.371}, {"sequence": "RRIRKRPPRLPRPRPRPAQVPRP", "shrunken log2 fold change": 0.296}, {"sequence": "RRIRKRPPRLPRPRPRPAQWPRP", "shrunken log2 fold change": 0.421}]}]}
